14 sequences from a protein production outcome set (Wang et al. 2014) can be followed below.

The nature of this data set: label from the status in PepcDB records.
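Also: failed if final PepcDB status was selected cloned or expressed and not failed if soluble or beyond.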

“MKLIASNKKAYFDYEILETLEAGLALLGSEVKALRQTRVNLKDNFVKIIKGEAFLFGVHISYLDTIHAYYKPNERRERKLLLHKKQLLKWQIEASKERLSIVGLKLYFNQRNRAKIQIALVKGKRLHDKRQSLKEKALNKEILADLKHHFKG”: the protein production result was “failed”.
On to “MKLIRVTLFLCALAILLLVTPTSSLQLKHPYSSPSQGLSKKIVTKMATRKLMIISSEYVMTSTSHEGSSEQLRVTSSGKSKDEEKKLSEEEEEKKALAKYLSMDYRTFRRRRPVHNKALPLDP”, for which the protein production result is on record as “failed”.
In the case of “MKLITKEVRIGIAGVAALCLLVFGINYLKGINMFKPASYFYVKFHNVNGLAQSSPVFADGVRVGIVRDIAYDYNQPENVIVEVEVDTDLRIPKGSSAELVPELMGGVRMNILLANNPRERYTVGDTIPGTLNNGMMEKVAAMMPAVEKMLPKLDSILTSLNTIMADQSIPATLHSIEKTTANLEVTSRQLKVLMNNDIPQLTGKLNTIGDNFVVISGNLKEIDYAATFKKIDTTLSNVKMLTEKLNSKDNTVGLLLNDPQLYNNLNQTTINAANLLEDLKEHPKRYVHFSLFGKKDKLEHHHHHH”, the protein production entry is given as “failed”.
Take “MKLIWSPETASKAYIDTVKSCENLGTPGAAELVAAMAAGWNANLIVETWSEGETIAISVGLNIASRHTNGRHICIVPNARSQTAYLQAMAEQSCSNLPETIIMNEEGEELEHTMQTLQGIDFLVVDWDQKDFAANVLRNAVFGSRGAVVVCRSGYRRSTSCFSWTKAFSDRNVVRTVTLPVSGGLEIAHVAAARSSGKSDNNSNKRKWIKHFDQRSGEEHVIRK”: the protein production entry is on record as “failed”.
The result for “MKLKDDPDIIRWINSRPRQALFASVAMVISTMSIGLFKGFDMWTADFFIFSCLLIGFGLLVGWLQKIYYKKVIFEENSDR” reads “failed”; that for “MKLKKRKVAAALLKRFTLPLLFTTGSLGAVTYEVHGDFINFAKVGFNHSPINPVKGIYPTETFVNLTGKLEGSVHLGRGWTVNLGGVLGGQAYDGTKYDRWAKDFTPPSYWDKTSCGTDSMSLCMNATKMWQQSGPGGVINPRGIGWEYMGEWNGLFPNYYPANAYLPGGSRRYQVYKANLTYDSDRVHMVMGRFDITEQEQMDWIYQLFQGFYGTFKLTKNMKFLLFSGWGRGIADGQWLFPIYREKPWGVHKAGIIYRPTKNLMIHPYVYLIPMVGTLPGAKIEYDTNPEFSGRGIRNRTTFYALYDYRWNNAEYGRYAPARYNTWDPFLDNGKWRGLQGPGGATLLLRHHIDINNYFVVGGAYLNIGNPNMNLGTWGNPVAVDGIEQWVGSIYSLGFAGIDNITDADAFTEYVKGGGKHGKFSWSVYQRFTTAPRALEYGIGMYLDYQFSKHVKAGLKLVWLEFQIRAGYNPGTGFLGPNGQPLNLNTGLFESSAFAQGPQNMGGIAKSITQDRSHLMTHISYSF”, “failed”.
Take “MKLKTKTMEWSGNSLKLLDQRKLPFIEEYVECKTHEEVAHAIKEMIVRGAPAIGVAAAFGYVLGLRDYKTGSLTDWMKQVKETLARTRPTAVNLFWALNRMEKVFFENADRENLFEILENEALKMAYEDIEVNKAIGKNGAQLIKDGSTILTHCNAGALATVDYGTALGVIRAAVESGKRIRVFADETRPYLQGARLTAWELMKDGIEVYVITDNMAGWLMKRGLIDAVVVGADRIALNGDTANKIGTYSLAVLAKRNNIPFYVAAPVSTIDPTIRSGEEIPIEERRPEEVTHCGGNRIAPEGVKVLNPAFDVTENTLITAIITEKGVIRPPFEENIKKILEV”: the protein production result is “not failed”.
Consider “MKLKTRICKKNSIRNSEKVEESSKSTTNCPLSCVDWSSNEEIYFVSDDHQIFKWSDVSRDSVEVAKLPDDFVPTDMHWLLLGGRSSGGGKGSDTLLICSNDGRFVILNKSARVERSISAHAAAISSGRWSPDGAGLLTAGEDGVIKIWSRSGMLRSTVVQNEESIRCARWAPNSNSIVFCQGGHISIKPLAANSKIIRWRAHDGLVLSLSWSTQSNIIASGGEDFRFKIWDAQGANLFTSAAEEYAITSVAFNPEKDYLLWSYNTARFSSPRVGSIFNLSWSADGTQATCGTSTGQLIVAYAIEQQLVSGNLKATSKSRKSITLKDIATGTQDILDFPQRVVSFGLGYGHLVVATTNQVHIYNEKYINTPIIIDGRNDTRVIEVGKKYFMILDALSIWVYTYTGRLHLNPRYPGSQAQIPLLTWRSLSLGLDVLAIRDNSDPTVLHLFDLIPGASRQYDPHSLRAKQQLVQIAACRAGSPEDQFVAFIDSNRELFVSESRNLNSERIDEIYKIGTQLTAIMWASETNILVGVHDSCYSIWYCPGEGASDPTIIALTTITLDTTEFGKHITIESFEESVLTFRSAGALLPVNVNMYCEILHRALLEGQWQQALKICRMGQHSSLWATLAAVATRKHQLQISEEAYSAALQIDKVSYLQHLKALTPSSAEQMAENSLMLGRMLEAETILLHGKKIEQAVGLALRMHNWRRALEISQKHKGEQPELVPRVLQERRKYLKALQREEWDPLYLPLVAKEEADNTSE”, for which the protein production entry was “failed”.
Regarding “MKLLNVLLLTTSLSVFYTYAETDYQWLRDDSRSEPAVKQFLAEHNRKTDHWFAPAKPLVQELVNEWQQTSQHKAPPPALIYANQQYNDIQWNGHRHIVKIGAQGQIEPLLNLSARAEPFDYYQLASWSLDRSVQSVALAEDTRGDEQFKLTIVRLADRTEQIVSETASTYFAWAADGKSLYYLSDLNGSTQLQRFELETGQSTRLAEWRSAEWLFSLYSASNPRYLVVQQNNENSTQQRLLDTQTGELMPWLRTTEPGLEYYADVLGETLYINSNHQGAFRLYRQPLHTKQDWQSVTTHKEIGSLSNFYLFDAGIVLVENQTLAPKVWVLDSQGEVRTHFELRDLGQVAWISRNGDAVSNRLRVRTMSMTEPASWHELDVAQLQWQQLSQDHYADFDPKQYQTQTVWVTQGAIQVPVTLAYRSDKLTPNSSVVLYGYGAYGVTMKPYFMPQIVSLLDRGMIYAIAHVRGGGYLGEAWHQAGAGLNKQNGIDDFLAAARYLTHFQQGERAIYTIGGSAGGTLVAAALNQQPNLFAGAVLQVPFVDVLASMSDTSQALTAQQYQEWGNPQQPEQRQVMQAYDPLSNLRAAPYPPTLVNVGWWDNRVPYWEGARYLARLSDVSQGAGPYLLSTDFQAGHASDRRQALEKQAREYAFFLTLDKTRKAGQ”, the protein production result is “failed”.
As to “MKLQGSNILGQEQIDLLTTRGLNFVWFPKQLETIYRFQYQNGAAYEFRYRAPIILILYLFLSFGIYQVLPTEQVLSWLSYYSWVGIIVLIAWILSFIKKLNQWFDYYVGIGSSAAVAITFILINVLENGQDNVLFHAAMMYAIVIIYGAVGMRFYTAIIAGWVGGLIGILVSTYLNGDIDWTFLNRTYTFSSFLGMTLAYATDRQHRENYLQNCMIELNRIELMQQAQQLSLLSQQDALTGLANRRYLDETLDNEWRRALRHETPLTIMMVDIDFFKPYNDSLGHLKGDQCLKDIATAISSIAARSGDLVARYGGEEFLLLFPMTNAQQAKIQAERLMNAIKKIAIVHPCSSVSPYVTISVGVATTIPRLNDSISAFVSRADHALYQAKTNGRNQYQIALNEEQIVDLT”, the protein production entry was “failed”.
Regarding “MKLRHCLIIVFACCAALWSESPSIADDAVRTSLAGLEWHVVTDVWPPFRIEQETGLVGIDVDILKALSTSLGLRLRISRAPWGRCLKMLETGAADAMIGLAKSAEREVYIRYVPTSYYTCSPRFYILAGARRAVLTYDDLEGMRVGYVAQSRYFEPFDSDTKLQKYAVPTERQLLELLLAGRVDVMVGTDCQVDYELAEAGLLERVVVAPYRPDAHTRLYLGFSRKSRFVPRIALFDDAMRDLLEKGALKQIRASYLPDSSVSGR”, the protein production result was “failed”.
The result for “MKLSQQSLSIIESAIQKAVGKYVCNCEQTVVTDIHLQPDQTSGQLNIYNDDDEELANVMVEEWATYDGDDFLENIEPGLRSILCRMKDAGDFDKVTILKPYSFVLVDEDKETVTELLLVDDDTMLVNDELLKGLDKELDDFLKELLEK” reads “failed”; that for “MKLTKGKVLLAGCMAMAMSHSVLAQDIKVAIVGAMSGPVAQYGDMQFTGARQAIADINASGGIKGDKLVGVEYDDACDPKQAVAVANKVINDGIRYVIGHLCSSSTQPASDIYEDEGVIMITPAATNADLTTRGYKMIMRTTGLDSDQGPTAAKYIVETIKPKRIAVVHDKQQYGEGLARSVRDSLKEQGAEVVLFEGVTAGDKDFSTLVARLKKENVDFVYFGGYYPEMGQILRQAKQAGLTARFMGPEGVGNSSLSNIAGEASEGMLVTLPKRYDQVPANQPIVDALKAKKLDPTGPFVWTTYAALQSLTTAMERTGSKEPADLANDLKTGKPVETVMGPLSWDDKGDLKGFEFGIFEWHADGSSTAVK”, “failed”.
“MKLYLILLPVLYLIVSYISIFKMHSVITRILRIVMGILLLFVVALTTLQFPKENWWVFVVLLLLVGNVEVTGFKELKDDKKGVSILNILSLLLFVIFIILIFILY”: the protein production entry was “failed”.
